Data: PMC5431086 (Scientific Reports, 2017)
Positions of bridges follow the written chain, without caps; N, C: chain ends. No end group written: not given here.

What was measured:
Experiment in all cases: enzyme inhibition assay (panel of proteases); cyc-LHSPW tested against a panel of cancer-associated proteases (Fig. 5A); conditions not given
[1] = target: trypsin
[2] = target: KLK7 (UniProt P49862 23-253)
[3] = target: PSA (UniProt P07288 18-261)
[4] = target: FAP (UniProt Q12884 1-760)
[5] = target: T1, aminopeptidase A (UniProt Q07075 1-957)
T1 chain: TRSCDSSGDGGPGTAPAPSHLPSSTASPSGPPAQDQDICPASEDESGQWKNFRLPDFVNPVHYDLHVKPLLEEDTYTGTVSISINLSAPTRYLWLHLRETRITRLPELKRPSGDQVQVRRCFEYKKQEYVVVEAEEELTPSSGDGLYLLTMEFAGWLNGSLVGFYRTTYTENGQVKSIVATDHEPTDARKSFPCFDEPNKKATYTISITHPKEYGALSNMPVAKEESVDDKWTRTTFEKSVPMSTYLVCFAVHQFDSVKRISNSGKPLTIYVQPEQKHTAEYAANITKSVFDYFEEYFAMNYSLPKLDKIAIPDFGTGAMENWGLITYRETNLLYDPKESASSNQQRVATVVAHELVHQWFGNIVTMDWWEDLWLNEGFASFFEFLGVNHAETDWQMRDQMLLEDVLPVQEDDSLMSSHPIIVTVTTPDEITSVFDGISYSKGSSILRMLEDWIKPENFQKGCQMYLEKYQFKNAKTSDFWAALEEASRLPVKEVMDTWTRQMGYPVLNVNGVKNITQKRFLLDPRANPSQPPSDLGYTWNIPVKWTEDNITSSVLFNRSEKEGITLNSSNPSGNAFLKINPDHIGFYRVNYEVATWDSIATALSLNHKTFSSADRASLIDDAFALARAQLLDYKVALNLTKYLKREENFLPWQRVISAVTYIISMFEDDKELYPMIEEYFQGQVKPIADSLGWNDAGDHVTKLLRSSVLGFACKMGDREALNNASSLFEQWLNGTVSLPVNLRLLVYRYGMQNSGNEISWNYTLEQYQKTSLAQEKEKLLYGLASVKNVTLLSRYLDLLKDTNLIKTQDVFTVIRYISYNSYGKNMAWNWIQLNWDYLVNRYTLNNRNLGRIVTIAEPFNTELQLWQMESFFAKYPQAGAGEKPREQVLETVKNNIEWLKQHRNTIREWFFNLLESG

Measured: Ki

Chain of PSA (P07288 25-261): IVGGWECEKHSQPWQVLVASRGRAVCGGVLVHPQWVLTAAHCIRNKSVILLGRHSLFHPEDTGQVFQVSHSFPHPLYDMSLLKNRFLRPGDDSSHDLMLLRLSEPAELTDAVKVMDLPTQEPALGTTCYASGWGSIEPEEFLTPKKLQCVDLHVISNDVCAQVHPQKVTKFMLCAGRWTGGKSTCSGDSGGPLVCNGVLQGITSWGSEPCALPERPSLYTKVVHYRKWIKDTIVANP
Chain of KLK7 (P49862 30-253): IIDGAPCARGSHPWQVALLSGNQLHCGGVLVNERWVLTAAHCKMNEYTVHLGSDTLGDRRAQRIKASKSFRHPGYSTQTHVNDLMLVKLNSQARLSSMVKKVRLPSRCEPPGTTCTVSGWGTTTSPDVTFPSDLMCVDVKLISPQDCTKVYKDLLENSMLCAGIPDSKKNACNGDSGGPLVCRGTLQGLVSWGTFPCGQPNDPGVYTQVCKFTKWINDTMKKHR
Chain of FAP (Q12884 26-760): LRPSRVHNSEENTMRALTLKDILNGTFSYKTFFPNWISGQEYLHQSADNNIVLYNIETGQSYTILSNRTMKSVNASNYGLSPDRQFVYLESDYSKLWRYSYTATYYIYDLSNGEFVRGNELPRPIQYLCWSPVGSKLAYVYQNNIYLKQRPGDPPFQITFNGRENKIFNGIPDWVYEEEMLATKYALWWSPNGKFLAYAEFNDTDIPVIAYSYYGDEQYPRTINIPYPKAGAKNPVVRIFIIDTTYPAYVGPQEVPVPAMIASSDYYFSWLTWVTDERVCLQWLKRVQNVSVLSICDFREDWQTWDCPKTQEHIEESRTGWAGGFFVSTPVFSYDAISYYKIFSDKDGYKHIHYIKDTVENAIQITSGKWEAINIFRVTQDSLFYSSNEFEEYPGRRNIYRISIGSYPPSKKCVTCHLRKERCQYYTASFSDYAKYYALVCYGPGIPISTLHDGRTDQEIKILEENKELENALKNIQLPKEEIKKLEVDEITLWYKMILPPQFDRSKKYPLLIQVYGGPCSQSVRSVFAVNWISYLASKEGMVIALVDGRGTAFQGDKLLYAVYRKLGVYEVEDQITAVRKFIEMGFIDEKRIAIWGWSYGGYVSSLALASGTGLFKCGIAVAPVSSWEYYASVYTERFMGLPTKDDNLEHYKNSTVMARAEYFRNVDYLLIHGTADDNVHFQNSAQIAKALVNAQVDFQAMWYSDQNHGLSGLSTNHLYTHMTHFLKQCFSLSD

B1: cyc-LHSPW (peptide)
peptide: CLHSPWC
modifications: disulfide 1-7
> 100 µM: all assays above
